# Measured values as given in publication PMC9352680, “A comprehensive thermodynamic model for RNA binding by the Saccharomyces cerevisiae Pumilio protein PUF4”.
# T1: PUF4 RNA-binding domain (Saccharomyces cerevisiae, UniProt P25339 537-888)
# T1 sequence: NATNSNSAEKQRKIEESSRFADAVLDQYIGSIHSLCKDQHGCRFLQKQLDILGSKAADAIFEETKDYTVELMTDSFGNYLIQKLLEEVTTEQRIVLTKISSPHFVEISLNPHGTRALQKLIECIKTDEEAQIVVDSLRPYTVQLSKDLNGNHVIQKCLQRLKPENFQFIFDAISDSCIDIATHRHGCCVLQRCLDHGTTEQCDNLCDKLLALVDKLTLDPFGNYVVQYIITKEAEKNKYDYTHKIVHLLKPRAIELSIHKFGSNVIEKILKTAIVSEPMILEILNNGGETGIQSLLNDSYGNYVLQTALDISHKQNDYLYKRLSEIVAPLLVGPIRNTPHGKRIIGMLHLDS
# B1: Ie_S2_P4E.1_K4.1_C4.1_H4.1_[+2C]_A4.1_F4.1_T4.1 (ssRNA)
# RNA: UUUGAUUAAUAUGAUAUCGUUCUUUCUUGCUAUAUUAUUCUUUCUCGAUAUCAUAUUAAUCUUU
# B2: If_S2_P5E.1_K5.1_C5.1_H5.1_A5.1_F5.1_T5.1 (ssRNA)
# RNA: UUUGAUUAAUAUGAUAUCGUUCUUUCUUGUAUUAUUAUUCUUUCUCGAUAUCAUAUUAAUCUUU
# B3: Ie_S2_P4E.1_K4.1_C4.1_H4.1_[+2CTCT]_A4.1_F4.1_T4.1 (ssRNA)
# RNA: UUUGAUUAAUAUGAUAUCGUUCUUUCUUGCUCUUAUAUUAUUCUUUCUCGAUAUCAUAUUAAUCUUU
# B4: Ie_S2_P4E.1_K4.1_C4.1_H4.1_[+2TTCC]_A4.1_F4.1_T4.1 (ssRNA)
# RNA: UUUGAUUAAUAUGAUAUCGUUCUUUCUUGUUCCUAUAUUAUUCUUUCUCGAUAUCAUAUUAAUCUUU
# B5: Ie_S2_P4E.1_K4.1_C4.1_H4.1_[+2TCTC]_A4.1_F4.1_T4.1 (ssRNA)
# RNA: UUUGAUUAAUAUGAUAUCGUUCUUUCUUGUCUCUAUAUUAUUCUUUCUCGAUAUCAUAUUAAUCUUU
# B6: Ie_S2_P4E.1_K4.1_C4.1_H4.1_A4.1_[+5CTCT]_F4.1_T4.1 (ssRNA)
# RNA: UUUGAUUAAUAUGAUAUCGUUCUUUCUUGUAUCUCUAUUAUUCUUUCUCGAUAUCAUAUUAAUCUUU
# B7: Ie_S2_P4E.1_K4.1_C4.1_H4.1_[+3CCCT]_A4.1_F4.1_T4.1 (ssRNA)
# RNA: UUUGAUUAAUAUGAUAUCGUUCUUUCUUGUCCCUAUAUUAUUCUUUCUCGAUAUCAUAUUAAUCUUU
# B8: Ie_S2_P4E.1_K4.1_C4.1_H4.1_[+3CCTC]_A4.1_F4.1_T4.1 (ssRNA)
# RNA: UUUGAUUAAUAUGAUAUCGUUCUUUCUUGUCCUCAUAUUAUUCUUUCUCGAUAUCAUAUUAAUCUUU
# B9: Ie_S2_P4E.1_K4.1_C4.1_H4.1_[+4CCCT]_A4.1_F4.1_T4.1 (ssRNA)
# RNA: UUUGAUUAAUAUGAUAUCGUUCUUUCUUGUACCCUUAUUAUUCUUUCUCGAUAUCAUAUUAAUCUUU
# B10: Ie_S2_P4E.1_K4.1_C4.1_H4.1_[+2CCCT]_A4.1_F4.1_T4.1 (ssRNA)
# RNA: UUUGAUUAAUAUGAUAUCGUUCUUUCUUGCCCUUAUAUUAUUCUUUCUCGAUAUCAUAUUAAUCUUU
# B11: Ie_S2_P5E.1_K5.1_C5.1_H5.1_A5.1_[+5TCC]_F5.1_T5.1 (ssRNA)
# RNA: UUUGAUUAAUAUGAUAUCGUUCUUUCUUGUAUUCCUAUUAUUCUUUCUCGAUAUCAUAUUAAUCUUU
# B12: Ib_S2_P3E.1_K3.1_C3.1_H3.1_A3.1_[A6C]_F3.1_[A8G]_T3.1 (ssRNA)
# RNA: UUUGAUUAAUAUGAUAUCGUUCUUUCUUGUAUCUGUUCUUUCUCGAUAUCAUAUUAAUCUUU
# B13: Ib_S2_P3E.1_K3.1_C3.1_H3.1_A3.1_[A6G]_F3.1_[A8C]_T3.1 (ssRNA)
# RNA: UUUGAUUAAUAUGAUAUCGUUCUUUCUUGUAUGUCUUCUUUCUCGAUAUCAUAUUAAUCUUU
# B14: Ib_S2_P3E.1_K3.1_C3.1_H3.1_A3.1_[A6T]_F3.1_[A8G]_T3.1 (ssRNA)
# RNA: UUUGAUUAAUAUGAUAUCGUUCUUUCUUGUAUUUGUUCUUUCUCGAUAUCAUAUUAAUCUUU
# B15: Ic_S2_P3E.1_K3.1_C3.1_H3.1_A3.1_[A6C]_F3.1_[A8C]_T3.1 (ssRNA)
# RNA: UUUGAUUAAUAUGAUAUCGUUCUUUCUUGUAUCUCUUCUUUCUCGAUAUCAUAUUAAUCUUU
# B16: Ie_S2_P4E.1_K4.1_C4.1_H4.1_[+2CT]_A4.1_F4.1_T4.1 (ssRNA)
# RNA: UUUGAUUAAUAUGAUAUCGUUCUUUCUUGCUUAUAUUAUUCUUUCUCGAUAUCAUAUUAAUCUUU
# B17: Ie_S2_P4E.1_K4.1_C4.1_H4.1_[+2TC]_A4.1_F4.1_T4.1 (ssRNA)
# RNA: UUUGAUUAAUAUGAUAUCGUUCUUUCUUGUCUAUAUUAUUCUUUCUCGAUAUCAUAUUAAUCUUU
# B18: Ie_S2_P4E.1_K4.1_C4.1_H4.1_[+3TT]_A4.1_F4.1_T4.1 (ssRNA)
# RNA: UUUGAUUAAUAUGAUAUCGUUCUUUCUUGUUUAUAUUAUUCUUUCUCGAUAUCAUAUUAAUCUUU
# B19: Ie_S2_P5E.1_K5.1_C5.1_H5.1_[+4T]_A5.1_F5.1_T5.1 (ssRNA)
# RNA: UUUGAUUAAUAUGAUAUCGUUCUUUCUUGUAUUUAUUAUUCUUUCUCGAUAUCAUAUUAAUCUUU
# B20: Ie_S2_P4E.1_K4.1_C4.1_H4.1_A4.1_[+5CT]_F4.1_T4.1 (ssRNA)
# RNA: UUUGAUUAAUAUGAUAUCGUUCUUUCUUGUAUCUAUUAUUCUUUCUCGAUAUCAUAUUAAUCUUU
# B21: Ie_S2_P4E.1_K4.1_C4.1_H4.1_[+1TCTCT]_A4.1_F4.1_T4.1 (ssRNA)
# RNA: UUUGAUUAAUAUGAUAUCGUUCUUUCUUUCUCUGUAUAUUAUUCUUUCUCGAUAUCAUAUUAAUCUUU
# B22: Ie_S2_P4E.1_K4.1_C4.1_H4.1_[+2TCTCT]_A4.1_F4.1_T4.1 (ssRNA)
# RNA: UUUGAUUAAUAUGAUAUCGUUCUUUCUUGUCUCUUAUAUUAUUCUUUCUCGAUAUCAUAUUAAUCUUU
# B23: Ie_S2_P4E.1_K4.1_C4.1_H4.1_[+1TTCCT]_A4.1_F4.1_T4.1 (ssRNA)
# RNA: UUUGAUUAAUAUGAUAUCGUUCUUUCUUUUCCUGUAUAUUAUUCUUUCUCGAUAUCAUAUUAAUCUUU
# B24: Ie_S2_P4E.1_K4.1_C4.1_H4.1_[+3TTCCT]_A4.1_F4.1_T4.1 (ssRNA)
# RNA: UUUGAUUAAUAUGAUAUCGUUCUUUCUUGUUUCCUAUAUUAUUCUUUCUCGAUAUCAUAUUAAUCUUU
# B25: Ie_S2_P4E.1_K4.1_C4.1_H4.1_[+4CCTCT]_A4.1_F4.1_T4.1 (ssRNA)
# RNA: UUUGAUUAAUAUGAUAUCGUUCUUUCUUGUACCUCUUAUUAUUCUUUCUCGAUAUCAUAUUAAUCUUU
# B26: Ie_S2_P4E.1_K4.1_C4.1_H4.1_[+1CCTCT]_A4.1_F4.1_T4.1 (ssRNA)
# RNA: UUUGAUUAAUAUGAUAUCGUUCUUUCUUCCUCUGUAUAUUAUUCUUUCUCGAUAUCAUAUUAAUCUUU
# B27: Ie_S2_P4E.1_K4.1_C4.1_H4.1_[+3CTCTC]_A4.1_F4.1_T4.1 (ssRNA)
# RNA: UUUGAUUAAUAUGAUAUCGUUCUUUCUUGUCUCUCAUAUUAUUCUUUCUCGAUAUCAUAUUAAUCUUU
# B28: Ie_S2_P4E.1_K4.1_C4.1_H4.1_[+3CCCTT]_A4.1_F4.1_T4.1 (ssRNA)
# RNA: UUUGAUUAAUAUGAUAUCGUUCUUUCUUGUCCCUUAUAUUAUUCUUUCUCGAUAUCAUAUUAAUCUUU
# B29: Ie_S2_P4E.1_K4.1_C4.1_H4.1_[+4TCTCT]_A4.1_F4.1_T4.1 (ssRNA)
# RNA: UUUGAUUAAUAUGAUAUCGUUCUUUCUUGUAUCUCUUAUUAUUCUUUCUCGAUAUCAUAUUAAUCUUU
# B30: Ie_S2_P4E.1_K4.1_C4.1_H4.1_[+2CCTCT]_A4.1_F4.1_T4.1 (ssRNA)
# RNA: UUUGAUUAAUAUGAUAUCGUUCUUUCUUGCCUCUUAUAUUAUUCUUUCUCGAUAUCAUAUUAAUCUUU
# B31: Ie_S2_P4E.1_K4.1_C4.1_H4.1_[+2CTCTC]_A4.1_F4.1_T4.1 (ssRNA)
# RNA: UUUGAUUAAUAUGAUAUCGUUCUUUCUUGCUCUCUAUAUUAUUCUUUCUCGAUAUCAUAUUAAUCUUU
# B32: Ie_S2_P4E.1_K4.1_C4.1_H4.1_[+4CTCTC]_A4.1_F4.1_T4.1 (ssRNA)
# RNA: UUUGAUUAAUAUGAUAUCGUUCUUUCUUGUACUCUCUAUUAUUCUUUCUCGAUAUCAUAUUAAUCUUU
# B33: Ie_S2_P4E.1_K4.1_C4.1_H4.1_[+3TCTCT]_A4.1_F4.1_T4.1 (ssRNA)
# RNA: UUUGAUUAAUAUGAUAUCGUUCUUUCUUGUUCUCUAUAUUAUUCUUUCUCGAUAUCAUAUUAAUCUUU
# B34: Ie_S2_P4E.1_K4.1_C4.1_H4.1_[+1CCCTT]_A4.1_F4.1_T4.1 (ssRNA)
# RNA: UUUGAUUAAUAUGAUAUCGUUCUUUCUUCCCUUGUAUAUUAUUCUUUCUCGAUAUCAUAUUAAUCUUU
# B35: Ie_S2_P4E.1_K4.1_C4.1_H4.1_[+2TCC]_A4.1_F4.1_T4.1 (ssRNA)
# RNA: UUUGAUUAAUAUGAUAUCGUUCUUUCUUGUCCUAUAUUAUUCUUUCUCGAUAUCAUAUUAAUCUUU
# B36: Ie_S2_P4E.1_K4.1_C4.1_H4.1_[+3CTT]_A4.1_F4.1_T4.1 (ssRNA)
# RNA: UUUGAUUAAUAUGAUAUCGUUCUUUCUUGUCUUAUAUUAUUCUUUCUCGAUAUCAUAUUAAUCUUU
# B37: Ie_S2_P5E.1_K5.1_C5.1_H5.1_[+4TT]_A5.1_F5.1_T5.1 (ssRNA)
# RNA: UUUGAUUAAUAUGAUAUCGUUCUUUCUUGUAUUUUAUUAUUCUUUCUCGAUAUCAUAUUAAUCUUU
# B38: Ie_S2_P4E.1_K4.1_C4.1_H4.1_[+3CTC]_A4.1_F4.1_T4.1 (ssRNA)
# RNA: UUUGAUUAAUAUGAUAUCGUUCUUUCUUGUCUCAUAUUAUUCUUUCUCGAUAUCAUAUUAAUCUUU
# B39: Ie_S2_P5E.1_K5.1_C5.1_H5.1_[+4TC]_A5.1_F5.1_T5.1 (ssRNA)
# RNA: UUUGAUUAAUAUGAUAUCGUUCUUUCUUGUAUCUUAUUAUUCUUUCUCGAUAUCAUAUUAAUCUUU
# B40: Ie_S2_P5E.1_K5.1_C5.1_H5.1_A5.1_[+6CT]_F5.1_T5.1 (ssRNA)
# RNA: UUUGAUUAAUAUGAUAUCGUUCUUUCUUGUAUUCUAUUAUUCUUUCUCGAUAUCAUAUUAAUCUUU
# B41: Ie_S2_P4E.1_K4.1_C4.1_H4.1_[+4CCT]_A4.1_F4.1_T4.1 (ssRNA)
# RNA: UUUGAUUAAUAUGAUAUCGUUCUUUCUUGUACCUUAUUAUUCUUUCUCGAUAUCAUAUUAAUCUUU
# B42: Ie_S2_P4E.1_K4.1_C4.1_H4.1_[+4TCC]_A4.1_F4.1_T4.1 (ssRNA)
# RNA: UUUGAUUAAUAUGAUAUCGUUCUUUCUUGUAUCCUAUUAUUCUUUCUCGAUAUCAUAUUAAUCUUU
# B43: Ie_S2_P5E.1_K5.1_C5.1_H5.1_[+4CT]_A5.1_F5.1_T5.1 (ssRNA)
# RNA: UUUGAUUAAUAUGAUAUCGUUCUUUCUUGUACUUUAUUAUUCUUUCUCGAUAUCAUAUUAAUCUUU
# B44: Ie_S2_P4E.1_K4.1_C4.1_H4.1_[+2CTT]_A4.1_F4.1_T4.1 (ssRNA)
# RNA: UUUGAUUAAUAUGAUAUCGUUCUUUCUUGCUUUAUAUUAUUCUUUCUCGAUAUCAUAUUAAUCUUU
# Molecular target: T1, PUF4 RNA-binding domain
# Experiment: Mg; RNA-MaP; 20 mM Na-HEPES pH 7.4, 30 mM KOAc, 0.75 mM MgCl2, 0.1% Tween-20, 5% glycerol, 0.1 mg/mL BSA, 2 mM DTT; 25 C; 0.0125-409.6 nM protein
# Conditions: tags: N-His6-TEV cleaved; C-SNAP kept, Cy3B-labelled; label: tethered on chip by stalled RNA polymerase
row,Binder,Kd
1,B1,81.5 nM
2,B2,1.92 nM
3,B3,47.4 nM
4,B4,17.9 nM
5,B5,16.8 nM
6,B6,4.51 nM
7,B7,41.4 nM
8,B8,106 nM
9,B9,1.96 nM
10,B10,127 nM
11,B11,4.58 nM
12,B12,14.7 nM
13,B13,90.1 nM
14,B14,37.8 nM
15,B15,15.4 nM
16,B16,198 nM
17,B17,27.8 nM
18,B18,34.1 nM
19,B19,11.6 nM
20,B20,5.74 nM
21,B21,0.249 nM
22,B22,26.5 nM

row,Binder,Kd
1,B23,0.215 nM
2,B24,17.5 nM
3,B25,5.57 nM
4,B26,0.166 nM
5,B27,135 nM
6,B28,35.8 nM
7,B29,7.16 nM
8,B30,122 nM
9,B31,101 nM
10,B32,6.5 nM
11,B33,12 nM
12,B34,0.12 nM
13,B35,10.9 nM
14,B36,14.4 nM
15,B37,1.57 nM
16,B38,9.57 nM
17,B39,1.55 nM
18,B40,1.41 nM
19,B41,1.13 nM
20,B42,2.35 nM
21,B43,0.922 nM
22,B44,111 nM
